The results in this text go back to paper doi:10.1101/2022.07.27.501708 (bioRxiv, 2022).

In the test the target is SARS-CoV-2 WT RBD (SPR analyte) (SARS-CoV-2, Wuhan-Hu-1, UniProt P0DTC2). In words: SPR.

B1: EH3 IgG (antibody, V domains shown)
VH: EVQLVESGGGLVQPGGSLRLSCAASGITVSSNYMTWVRQAPGKGLEWVSVIYSGGSTFYADSVRGRFTISRDNSKNTLYLQMNSLRAEDTAVYYCARDLEMAGAFDIWGQGTMVTVSS
VL: not shown
Turning to B1, the Kd lay in the range of 0.83 to 2.79 nM and the kon was 83200 to 274000 M⁻¹ s⁻¹.

B2: EH8 IgG (antibody, V domains shown)
VH: QVQLVQSGAEVKKPGASVKVSCKASGYTFSSYGISWVRQAPGQGLEWMGWISPYNGNTKYPQKFQGRVTMTTDTSTNTAYMELRSLRSDDTAVYYCARDLELGGGFDYWGQGTLVTVSS
VL: QSALTQPASVSGSPGQSITISCTGTSSDVGSYNLVSWYQQHPDKAPKFMIYEGTKRPSGVSNRFSGSKSGNTASLTISGLQAEDEADYYCCSYAGNSTWVFGGGTKLTVL
The molecule B2 yielded a dissociation constant Kd of 1.3 to 7.22 nM and a kon of 403000 to 837000 M⁻¹ s⁻¹.

Broadly, the Kd is the free concentration of one partner at which half of the binding sites on the other are occupied at equilibrium, for simple one-to-one binding. For orientation: kon means a measure of how fast the partners come together. Higher therefore signals faster complex formation.
